Publication PMC60004 (BMC Biochemistry, 2001)

Legend:
[1] = target: Bombyx mori aminopeptidase N, native, 115-kDa (115-120 kDa) Cry1Aa-binding receptor (Bombyx mori (endogenous in larval …)); assay: SPR
[2] = target: Bombyx mori cadherin-like receptor BtR175, native, 175 kDa (Bombyx mori (endogenous in larval …)); assay: SPR

B1: Bacillus thuringiensis Cry1Aa toxin (trypsin-activated, wild type) (domain or fragment)
chain: not shown
B1 was tested, and the Kd [1] was 75 nM, the koff [1] was 0.0015 s⁻¹ and the kon [1] was 20000 M⁻¹ s⁻¹. The Kd [2] was 2.6 nM, the koff [2] was 3.3e-05 s⁻¹ and the kon [2] was 13000 ± 6.1 M⁻¹ s⁻¹.
